The values that follow come from PMC3507621, “Implication of the oligomeric state of the N-terminal PTX3 domain in cumulus matrix assembly” (Matrix Biology, 2011).

Numbering of substitutions follows the chain as printed. Names may count otherwise. “And” between values parts separate entries of the source, which are not always exact repeats. Equal entries are not always repeated.

The labels stand for the following.
B1: wild type recombinant N-terminal region of PTX3 (N_PTX3) (domain or fragment, human)
chain: ENSDDYDLMYVNLDNEIDNGLHPTEDPTPCACGQEHSEWDKLFIMLENSQMRERMLLQATDDVLRGELQRLREELGRLAESLARPCAPGAPAEARLTSALDELLQATRDAGRRLARMEGAEAQRPEEAGRALAAVLEELRQTRADLHAVQGWATG
notes: Pentraxin 3 (PTX3), human, residues 18-170 of the PTX3 preprotein; two non-authentic amino acids (Thr-Gly) before the C-terminal His tag; Organised into tetramers by SEC and native gel; The 5' primer begins at the ATG of the preprotein, so the signal peptide was probably encoded and cut off on secretion (surmise); also called WT; source: HEK-293 F, stably transfected, purified from culture …
B2: N_PTX3C47S/C49S/C103S (domain or fragment, human)
chain: B1 chain with C30S, C32S, C86S
notes: Pentraxin 3 (PTX3), human, residues 18-170 of the PTX3 preprotein, with C47S, C49S and C103S; two non-authentic amino acids (Thr-Gly) before the C-terminal His tag; Composed entirely of non-covalent dimers; also called triple mutant; C47/C49/C103; source: HEK-293 F, stably transfected, purified from culture supernatant (HisTrap, desalting)
B3: N_PTX3C103S (domain or fragment, human)
chain: B1 chain with C86S
notes: Pentraxin 3 (PTX3), human, residues 18-170 of the PTX3 preprotein, with C103S; two non-authentic amino acids (Thr-Gly) before the C-terminal His tag; Mixture of tetramers and dimers, more tetramers than dimers; also called single mutant; source: HEK-293 F, stably transfected, purified from culture supernatant (HisTrap, desalting)
B4: N_PTX3C47S/C49S (domain or fragment, human)
chain: B1 chain with C30S, C32S
notes: Pentraxin 3 (PTX3), human, residues 18-170 of the PTX3 preprotein, with C47S and C49S; two non-authentic amino acids (Thr-Gly) before the C-terminal His tag; Mixture of tetramers and dimers, more dimers than tetramers; also called double mutant; C47/C49; source: HEK-293 F, stably transfected, purified from culture supernatant (HisTrap, desalting)
B5: mouse TSG-6 (tumor necrosis factor-induced protein 6) (natural protein, UniProt O08859 18-275, looked up)
chain: WGFKNGIFHNSIWLEQAAGVYHREARAGRYKLTYAEAKAVCEFEGGRLATYKQLEAARKIGFHVCAAGWMAKGRVGYPIVKPGPNCGFGKTGIIDYGIRLNRSERWDAYCYNPHAKECGGVFTDPKRIFKSPGFPNEYDDNQVCYWHIRLKYGQRIHLSFLDFDLEHDPGCLADYVEIYDSYDDVHGFVGRYCGDELPEDIISTGNVMTLKFLSDASVTAGGFQIKYVTVDPASKSSQAKNTSTTGNKKFLPGRFSHL
notes: TSG-6 (tumor necrosis factor-induced protein 6), mouse; source: bought: R&D

One data set deals with the molecule itself. As to the kind of experiment: SEC + native gel or EMSA; Superose 6 in 20 mM sodium phosphate, 150 mM NaCl, pH 7.4; native 4-20% polyacrylamide gel without SDS; oligomeric state of purified N_PTX3 proteins.
Settings: not given
In general terms: In EMSA bound probe runs differently from free probe, usually more slowly.
As for B1, the “stoichiometry N” value came out at 4.

Regarding B2, the “stoichiometry N” value came out at 2.

Regarding B3, the “stoichiometry N” value is 4 and 2.

Consider B4, for which the “stoichiometry N” value was 4 and 2.

A further data set deals with B5. As to the kind of experiment: ELISA; N_PTX3 proteins coated on wells (10 μg/ml); IαI or TSG-6 added in PBS with Ca2+ and Mg2+, 0.05% Tween-20, 1% BSA, pH 7.4, 2 h at 37 °C; detected with polyclonal anti-IαI or anti-TSG-6. As to conditions: both partners purified. In general terms: An ELISA detects its analyte on a solid surface through an enzyme-linked reagent.
Take B1: the binding result is “binds”.

On to B2, for which the binding result is “binds”. Same read-out and setting: the same measure for B3: “binds”; for B4: “binds”.

Another data set deals with T1, biotinylated recombinant full length PTX3 (human, UniProt P26022 18-381, biotin).
T1 construct: Pentraxin 3 (PTX3), human recombinant wild type, full length; As a secreted protein it probably lacks the signal peptide (residues 1-17; surmise); also called bPTX3; biotinylated PTX3
Put plainly: ELISA; competition: wells coated with 500 ng of IαI or TSG-6; 50 ng/well biotinylated PTX3 with or without unlabeled N_PTX3 or triple mutant, 1 h at 37 °C; HRP-streptavidin. As to conditions: both partners purified.
With B5, the binding result was “binds”.

What is called stoichiometry N is a count of units in the complex or per binding partner.
